Tests used:
Test in all cases: holdup assay
Parameters in all cases: key: below the threshold = too weak to quantify, mostly under pKd 3.1 to 4
TIAM2, Q8IVF5 = target: T1, TIAM2, Q8IVF5
T1 sequence (Q8IVF5 885-986, limits assumed, looked up): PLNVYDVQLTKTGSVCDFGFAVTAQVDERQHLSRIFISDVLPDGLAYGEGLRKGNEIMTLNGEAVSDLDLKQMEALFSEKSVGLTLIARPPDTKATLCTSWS

MPDZ_10, O75970 = target: T2, MPDZ_10, O75970
T2 sequence (O75970 1624-1722, limits assumed, looked up): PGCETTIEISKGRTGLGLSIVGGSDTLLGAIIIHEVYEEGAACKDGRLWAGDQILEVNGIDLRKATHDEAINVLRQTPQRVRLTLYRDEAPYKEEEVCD

Inadl_2, Q8NI35 = target: Inadl_2, Q8NI35
APBA1_2, Q02410 = target: T3, APBA1_2, Q02410
T3 sequence (Q02410 742-832, limits assumed, looked up): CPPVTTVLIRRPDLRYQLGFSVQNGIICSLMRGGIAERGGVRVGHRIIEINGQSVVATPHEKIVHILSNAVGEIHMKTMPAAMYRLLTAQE

HTRA4, P83105 = target: T4, HTRA4, P83105
T4 sequence (P83105 378-476, limits assumed, looked up): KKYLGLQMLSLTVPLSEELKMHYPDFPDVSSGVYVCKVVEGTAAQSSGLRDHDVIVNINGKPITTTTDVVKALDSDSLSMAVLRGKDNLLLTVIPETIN

SCRIB_2, Q14160 = target: SCRIB_2, Q14160
GOPC, Q9HD26 = target: GOPC, Q9HD26
GRIP1_5, Q9Y3R0 = target: T5, GRIP1_5, Q9Y3R0
T5 sequence (Q9Y3R0 568-668, limits assumed, looked up): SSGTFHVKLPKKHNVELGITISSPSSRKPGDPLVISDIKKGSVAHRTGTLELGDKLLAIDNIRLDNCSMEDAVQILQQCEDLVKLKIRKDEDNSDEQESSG

FRMPD1, Q5SYB0 = target: T6, FRMPD1, Q5SYB0
T6 sequence (Q5SYB0 52-145, limits assumed, looked up): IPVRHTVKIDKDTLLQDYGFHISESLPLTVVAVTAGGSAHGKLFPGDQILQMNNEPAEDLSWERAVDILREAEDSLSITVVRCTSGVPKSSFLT

DLG4_3, P78352 = target: DLG4_3, P78352
MAGI2_4, Q86UL8 = target: MAGI2_4, Q86UL8
DFNB31_2, Q9P202 = target: T7, DFNB31_2, Q9P202
T7 sequence (Q9P202 274-371, limits assumed, looked up): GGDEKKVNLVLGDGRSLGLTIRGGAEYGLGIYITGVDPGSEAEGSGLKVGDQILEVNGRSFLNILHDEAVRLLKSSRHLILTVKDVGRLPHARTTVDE

APBA1_1, Q02410 = target: T8, APBA1_1, Q02410
T8 sequence (Q02410 651-752, limits assumed, looked up): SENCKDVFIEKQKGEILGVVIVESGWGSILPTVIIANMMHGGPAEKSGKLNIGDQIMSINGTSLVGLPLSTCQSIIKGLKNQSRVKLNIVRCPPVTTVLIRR

HTRA1, Q92743 = target: HTRA1, Q92743
Inadl_3, Q8NI35 = target: Inadl_3, Q8NI35
GRIP1_4, Q9Y3R0 = target: T9, GRIP1_4, Q9Y3R0
T9 sequence (Q9Y3R0 467-571, limits assumed, looked up): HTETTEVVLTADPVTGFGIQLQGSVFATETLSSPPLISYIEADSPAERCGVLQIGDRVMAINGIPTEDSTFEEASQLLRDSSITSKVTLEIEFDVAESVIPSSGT

NOS1, P29475 = target: NOS1, P29475
PDZRN3_1, Q9UPQ7 = target: T10, PDZRN3_1, Q9UPQ7
T10 sequence (Q9UPQ7 244-349, limits assumed, looked up): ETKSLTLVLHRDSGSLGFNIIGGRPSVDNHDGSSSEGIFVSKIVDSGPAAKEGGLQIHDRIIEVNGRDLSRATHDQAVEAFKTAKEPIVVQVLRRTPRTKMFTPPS

NHERF4_1, Q86UT5-2 = target: NHERF4_1, Q86UT5-2
SCRIB_3, Q14160 = target: SCRIB_3, Q14160
Inadl_1, Q8NI35 = target: Inadl_1, Q8NI35
GIPC2, Q8TF65 = target: GIPC2, Q8TF65
TJP2_1, Q9UDY2 = target: TJP2_1, Q9UDY2
HTRA3, P83110 = target: T11, HTRA3, P83110
T11 sequence (P83110 354-453, limits assumed, looked up): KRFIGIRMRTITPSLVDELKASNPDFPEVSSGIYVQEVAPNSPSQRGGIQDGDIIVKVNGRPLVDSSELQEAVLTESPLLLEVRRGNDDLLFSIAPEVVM

Inadl_4, Q8NI35 = target: Inadl_4, Q8NI35
TJP3_3, O95049 = target: T12, TJP3_3, O95049
T12 sequence (O95049 375-456, limits assumed, looked up): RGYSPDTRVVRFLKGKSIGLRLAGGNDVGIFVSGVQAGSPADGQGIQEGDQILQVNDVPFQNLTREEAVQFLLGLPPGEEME

[1] = plain residues with an end cap or a label only (N-terminal biotin on a linker: ttds)
[2] = plain residues with an end cap or a label only (N-terminal biotin on a linker: ahx)
[3] = plain residues with an end cap or a label only (N-terminal biotin on a linker: ado-ado)

Sequence of MAGI2_4, Q86UL8 (Q86UL8 772-865): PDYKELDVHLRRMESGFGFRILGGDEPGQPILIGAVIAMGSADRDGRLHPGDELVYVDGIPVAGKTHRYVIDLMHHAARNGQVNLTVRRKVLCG
Sequence of Inadl_1, Q8NI35 (Q8NI35 113-229): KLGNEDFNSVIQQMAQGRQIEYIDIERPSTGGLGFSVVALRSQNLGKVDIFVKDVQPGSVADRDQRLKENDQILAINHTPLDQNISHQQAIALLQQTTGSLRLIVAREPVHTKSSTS
Sequence of NHERF4_1, Q86UT5-2 (Q86UT5 other isoform, or with tags, fused parts or gaps): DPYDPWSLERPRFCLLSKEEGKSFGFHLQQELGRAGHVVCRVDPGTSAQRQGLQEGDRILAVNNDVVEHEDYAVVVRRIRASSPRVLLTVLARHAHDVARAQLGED
Sequence of SCRIB_2, Q14160 (Q14160 857-960): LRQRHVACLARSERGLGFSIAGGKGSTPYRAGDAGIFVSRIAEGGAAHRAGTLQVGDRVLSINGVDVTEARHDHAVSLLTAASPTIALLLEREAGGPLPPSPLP
Sequence of GIPC2, Q8TF65 (Q8TF65 112-203): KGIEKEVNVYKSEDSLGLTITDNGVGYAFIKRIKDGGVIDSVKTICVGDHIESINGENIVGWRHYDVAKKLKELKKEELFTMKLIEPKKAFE
Sequence of NOS1, P29475 (P29475 9-101): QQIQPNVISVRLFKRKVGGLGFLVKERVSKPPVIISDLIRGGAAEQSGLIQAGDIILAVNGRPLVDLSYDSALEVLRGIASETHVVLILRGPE
Sequence of Inadl_3, Q8NI35 (Q8NI35 359-469): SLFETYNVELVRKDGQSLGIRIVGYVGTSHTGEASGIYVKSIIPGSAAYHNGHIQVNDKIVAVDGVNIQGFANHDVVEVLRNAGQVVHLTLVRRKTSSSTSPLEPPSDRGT
Sequence of TJP2_1, Q9UDY2 (Q9UDY2 24-128): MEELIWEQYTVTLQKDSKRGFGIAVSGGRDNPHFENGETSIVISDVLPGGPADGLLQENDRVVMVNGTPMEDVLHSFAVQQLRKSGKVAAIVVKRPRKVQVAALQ
Sequence of SCRIB_3, Q14160 (Q14160 999-1103): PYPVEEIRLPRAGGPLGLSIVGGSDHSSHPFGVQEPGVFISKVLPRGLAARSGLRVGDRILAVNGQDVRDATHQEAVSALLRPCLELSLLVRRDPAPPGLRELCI
Sequence of HTRA1, Q92743 (Q92743 360-477): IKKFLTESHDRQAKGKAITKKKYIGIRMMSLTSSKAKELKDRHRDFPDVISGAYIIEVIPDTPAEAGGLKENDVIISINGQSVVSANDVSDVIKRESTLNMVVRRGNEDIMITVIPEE
Sequence of DLG4_3, P78352 (P78352 306-403): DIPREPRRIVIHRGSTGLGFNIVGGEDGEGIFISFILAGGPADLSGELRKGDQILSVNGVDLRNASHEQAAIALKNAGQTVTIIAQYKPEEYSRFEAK
Sequence of Inadl_2, Q8NI35 (Q8NI35 238-335): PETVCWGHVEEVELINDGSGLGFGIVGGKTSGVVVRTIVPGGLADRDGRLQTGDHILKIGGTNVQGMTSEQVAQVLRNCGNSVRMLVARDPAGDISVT
Sequence of Inadl_4, Q8NI35 (Q8NI35 547-651): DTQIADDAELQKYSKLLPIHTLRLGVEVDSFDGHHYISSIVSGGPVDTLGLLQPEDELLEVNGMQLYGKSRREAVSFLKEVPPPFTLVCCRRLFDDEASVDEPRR

Binder: RTRQRNETQV [HPV51-E6, P26554]
- pKd (TIAM2, Q8IVF5; [1]): below the threshold
- pKd (MPDZ_10, O75970; [1]): below the threshold
- pKd (Inadl_2, Q8NI35; [1]): below the threshold
- pKd (APBA1_2, Q02410; [1]): 3.56
- pKd (HTRA4, P83105; [1]): below the threshold
- pKd (SCRIB_2, Q14160; [1]): 4.39
- pKd (GOPC, Q9HD26; [1]): 3.72
- pKd (GRIP1_5, Q9Y3R0; [1]): below the threshold
- pKd (FRMPD1, Q5SYB0; [1]): below the threshold
- pKd (DLG4_3, P78352; [1]): 4.75
- pKd (MAGI2_4, Q86UL8; [1]): 4.4
- pKd (DFNB31_2, Q9P202; [1]): below the threshold
- pKd (APBA1_1, Q02410; [1]): below the threshold
- pKd (HTRA1, Q92743; [1]): below the threshold
- pKd (Inadl_3, Q8NI35; [1]): below the threshold
- pKd (GRIP1_4, Q9Y3R0; [1]): below the threshold
- pKd (NOS1, P29475; [1]): 3.91
- pKd (PDZRN3_1, Q9UPQ7; [1]): 4.06
- pKd (NHERF4_1, Q86UT5-2; [1]): below the threshold
- pKd (SCRIB_3, Q14160; [1]): 4.17
- pKd (Inadl_1, Q8NI35; [1]): below the threshold
- pKd (GIPC2, Q8TF65; [1]): 3.63
- pKd (TJP2_1, Q9UDY2; [1]): below the threshold
- pKd (HTRA3, P83110; [1]): below the threshold
- pKd (Inadl_4, Q8NI35; [1]): below the threshold
- pKd (TJP3_3, O95049; [1]): below the threshold

Binder: QGRWDHETIV [TMEM215, Q68D42]
- pKd (TIAM2, Q8IVF5; [2]): below the threshold
- pKd (MPDZ_10, O75970; [2]): below the threshold
- pKd (Inadl_2, Q8NI35; [2]): 4.22
- pKd (APBA1_2, Q02410; [2]): 3.9
- pKd (HTRA4, P83105; [2]): 3.53
- pKd (SCRIB_2, Q14160; [2]): 4.08
- pKd (GOPC, Q9HD26; [2]): 3.99
- pKd (GRIP1_5, Q9Y3R0; [2]): 3.55
- pKd (FRMPD1, Q5SYB0; [2]): below the threshold
- pKd (DLG4_3, P78352; [2]): 3.64
- pKd (MAGI2_4, Q86UL8; [2]): 4
- pKd (DFNB31_2, Q9P202; [2]): below the threshold
- pKd (APBA1_1, Q02410; [2]): below the threshold
- pKd (HTRA1, Q92743; [2]): 5
- pKd (Inadl_3, Q8NI35; [2]): 4.42
- pKd (GRIP1_4, Q9Y3R0; [2]): below the threshold
- pKd (NOS1, P29475; [2]): 4.04
- pKd (PDZRN3_1, Q9UPQ7; [2]): 3.73
- pKd (NHERF4_1, Q86UT5-2; [2]): below the threshold
- pKd (SCRIB_3, Q14160; [2]): 4.06
- pKd (Inadl_1, Q8NI35; [2]): below the threshold
- pKd (GIPC2, Q8TF65; [2]): 3.81
- pKd (TJP2_1, Q9UDY2; [2]): 3.68
- pKd (HTRA3, P83110; [2]): below the threshold
- pKd (Inadl_4, Q8NI35; [2]): below the threshold
- pKd (TJP3_3, O95049; [2]): 3.62

Binder: GGPKEEESPV [SLC16A1, P53985]
- pKd (TIAM2, Q8IVF5; [1]): below the threshold
- pKd (MPDZ_10, O75970; [1]): below the threshold
- pKd (Inadl_2, Q8NI35; [1]): below the threshold
- pKd (APBA1_2, Q02410; [1]): below the threshold
- pKd (HTRA4, P83105; [1]): below the threshold
- pKd (SCRIB_2, Q14160; [1]): below the threshold
- pKd (GOPC, Q9HD26; [1]): below the threshold
- pKd (GRIP1_5, Q9Y3R0; [1]): below the threshold
- pKd (FRMPD1, Q5SYB0; [1]): below the threshold
- pKd (DLG4_3, P78352; [1]): below the threshold
- pKd (MAGI2_4, Q86UL8; [1]): below the threshold
- pKd (DFNB31_2, Q9P202; [1]): below the threshold
- pKd (APBA1_1, Q02410; [1]): below the threshold
- pKd (HTRA1, Q92743; [1]): below the threshold
- pKd (Inadl_3, Q8NI35; [1]): below the threshold
- pKd (GRIP1_4, Q9Y3R0; [1]): below the threshold
- pKd (NOS1, P29475; [1]): 3.64
- pKd (PDZRN3_1, Q9UPQ7; [1]): below the threshold
- pKd (NHERF4_1, Q86UT5-2; [1]): below the threshold
- pKd (SCRIB_3, Q14160; [1]): below the threshold
- pKd (Inadl_1, Q8NI35; [1]): below the threshold
- pKd (GIPC2, Q8TF65; [1]): below the threshold
- pKd (TJP2_1, Q9UDY2; [1]): below the threshold
- pKd (HTRA3, P83110; [1]): below the threshold
- pKd (Inadl_4, Q8NI35; [1]): below the threshold
- pKd (TJP3_3, O95049; [1]): below the threshold

Binder: EEPEERHTEL [CES2, O00748]
- pKd (TIAM2, Q8IVF5; [3]): 4.07
- pKd (MPDZ_10, O75970; [3]): below the threshold
- pKd (Inadl_2, Q8NI35; [3]): below the threshold
- pKd (APBA1_2, Q02410; [3]): 3.5
- pKd (HTRA4, P83105; [3]): below the threshold
- pKd (SCRIB_2, Q14160; [3]): 3.79
- pKd (GOPC, Q9HD26; [3]): below the threshold
- pKd (GRIP1_5, Q9Y3R0; [3]): below the threshold
- pKd (FRMPD1, Q5SYB0; [3]): below the threshold
- pKd (DLG4_3, P78352; [3]): below the threshold
- pKd (MAGI2_4, Q86UL8; [3]): below the threshold
- pKd (DFNB31_2, Q9P202; [3]): below the threshold
- pKd (APBA1_1, Q02410; [3]): below the threshold
- pKd (HTRA1, Q92743; [3]): 4.36
- pKd (Inadl_3, Q8NI35; [3]): below the threshold
- pKd (GRIP1_4, Q9Y3R0; [3]): below the threshold
- pKd (NOS1, P29475; [3]): 3.56
- pKd (PDZRN3_1, Q9UPQ7; [3]): 4.15
- pKd (NHERF4_1, Q86UT5-2; [3]): 4.09
- pKd (SCRIB_3, Q14160; [3]): 4.89
- pKd (Inadl_1, Q8NI35; [3]): below the threshold
- pKd (GIPC2, Q8TF65; [3]): below the threshold
- pKd (TJP2_1, Q9UDY2; [3]): below the threshold
- pKd (HTRA3, P83110; [3]): below the threshold
- pKd (Inadl_4, Q8NI35; [3]): below the threshold
- pKd (TJP3_3, O95049; [3]): below the threshold

Binder: DPRNTQTSQI [ABRAXAS2, Q15018]
- pKd (TIAM2, Q8IVF5; [1]): below the threshold
- pKd (MPDZ_10, O75970; [1]): below the threshold
- pKd (Inadl_2, Q8NI35; [1]): below the threshold
- pKd (APBA1_2, Q02410; [1]): 3.71
- pKd (HTRA4, P83105; [1]): 3.48
- pKd (SCRIB_2, Q14160; [1]): below the threshold
- pKd (GOPC, Q9HD26; [1]): 4.13
- pKd (GRIP1_5, Q9Y3R0; [1]): 3.66
- pKd (FRMPD1, Q5SYB0; [1]): below the threshold
- pKd (DLG4_3, P78352; [1]): below the threshold
- pKd (MAGI2_4, Q86UL8; [1]): below the threshold
- pKd (DFNB31_2, Q9P202; [1]): 3.62
- pKd (APBA1_1, Q02410; [1]): below the threshold
- pKd (HTRA1, Q92743; [1]): 3.64
- pKd (Inadl_3, Q8NI35; [1]): below the threshold
- pKd (GRIP1_4, Q9Y3R0; [1]): below the threshold
- pKd (NOS1, P29475; [1]): 3.52
- pKd (PDZRN3_1, Q9UPQ7; [1]): 3.54
- pKd (NHERF4_1, Q86UT5-2; [1]): below the threshold
- pKd (SCRIB_3, Q14160; [1]): 4.01
- pKd (Inadl_1, Q8NI35; [1]): 3.72
- pKd (GIPC2, Q8TF65; [1]): 3.54
- pKd (TJP2_1, Q9UDY2; [1]): below the threshold
- pKd (HTRA3, P83110; [1]): below the threshold
- pKd (Inadl_4, Q8NI35; [1]): below the threshold
- pKd (TJP3_3, O95049; [1]): below the threshold
